What was measured:
[1] = target: the molecule itself; assay: fibril formation seen by negative staining TEM
[2] = target: the molecule itself; assay: circular dichroism of fibrils collected by centrifugation
[3] = target: the molecule itself; assay: SEC
[4] = target: the molecule itself; assay: pelleting assay
[5] = target: the molecule itself; assay: pelleting by centrifugation + negative staining TEM

B1: Cdc19 amyloid core peptide, E380Q E392Q (peptide)
peptide: TSTTQTVAASAVAAVFQ
binding result [1]: binds

B2: Cdc19 amyloid core peptide, wild type (amino acids 376-392) (peptide)
peptide: TSTTETVAASAVAAVFE
binding result [2]: binds

B3: Cdc19 amyloid core peptide, E380A E392A (peptide)
peptide: TSTTATVAASAVAAVFA
binding result [2]: binds

B4: Purified full-length Cdc19, wild type (enzyme)
chain: MSRLERLTSLNVVAGSDLRRTSIIGTIGPKTNNPETLVALRKAGLNIVRMNFSHGSYEYHKSVIDNARKSEELYPGRPLAIALDTKGPEIRTGTTTNDVDYPIPPNHEMIFTTDDKYAKACDDKIMYVDYKNITKVISAGRIIYVDDGVLSFQVLEVVDDKTLKVKALNAGKICSHKGVNLPGTDVDLPALSEKDKEDLRFGVKNGVHMVFASFIRTANDVLTIREVLGEQGKDVKIIVKIENQQGVNNFDEILKVTDGVMVARGDLGIEIPAPEVLAVQKKLIAKSNLAGKPVICATQMLESMTYNPRPTRAEVSDVGNAILDGADCVMLSGETAKGNYPINAVTTMAETAVIAEQAIAYLPNYDDMRNCTPKPTSTTETVAASAVAAVFEQKAKAIIVLSTSGTTPRLVSKYRPNCPIILVTRCPRAARFSHLYRGVFPFVFEKEPVSDWTDDVEARINFGIEKAKEFGILKKGDTYVSIQGFKAGAGHSNTLQVSTV
stoichiometry N [3]: 4

B5: Purified full-length PKM2 H391R (enzyme)
chain: not shown
binding result [4]: binds

B6: PKM2 amyloid core centre peptide, wild type (amino acids 382-402) (peptide)
peptide: AREAEAAIYHLQLFEELRRLA
binding result [5]: binds

B7: PKM2 amyloid core centre peptide H391R (amino acids 382-402) (peptide)
peptide: AREAEAAIYRLQLFEELRRLA
binding result [5]: binds

Source: publication doi:10.1101/2022.03.21.484600 (bioRxiv, 2022)
